Experimental data: patent US20230241072A1, “ANTHRACYCLINE DERIVATIVES” (ALMAC DISCOVERY LIMITED, priority 2019, published 2023)
Where a chain is given by its changes, count along the chain named. In names and notes the source's numbering stands.

Legend:
human ROR2 = target: T1, human ROR2 (Homo sapiens, UniProt Q01974); experiment: SPR / BLI binding to immobilised ROR2-hFc
T1 construct: ROR1-hFc or ROR2-hFc fusion proteins (extracelluar domains) were immobilised
Experimental: (§1) VNARs were genetically fused to engineered hIgG1 Fc domains via standard [G4S]3 that contained a cysteine substitution in the hIgG1 Fc sequence, S239C (EU numbering). The VNAR Fc fusion proteins were expressed as secreted protein in CHO K1 cells and purified from the media using MabSelect™ SuRe™ (Evitria, Switzerland). Purified proteins were analysed by SEC (AdvanceBio, Agilent), SDS PAGE and mass spectrometry to confirm sequence and protein integrity. Binding kinetics were determined using a Pioneer Surface Plasmon Resonance (SPR) instrument (SensiQ/Pall ForteBio), or the Biolayer Interferometry (BLI) Octet K2 system (ForteBio). ROR1-hFc or ROR2-hFc fusion proteins (extracelluar domains) were immobilised in sodium acetate pH5 buffer to COOH2 chips or AR2G sensors using amine coupling. VNARs and VNAR-Fc molecules were tested at various concentrations and the Ka (M^−1 s^−1), Kd (s^−1) and KD (nM) values were determined using QDat software (SensiQ/Pall ForteBio) or Octet Data Analysis High Throughput software (ForteBio) for Biolayer Interferometry. ROR1 2A2 mAb (Biolegend) and ROR2 mAb (R&D Systems) were included as controls for positive/negative binding to ROR1 and ROR2. 2V is a control VNAR sequence, derived from a naïve VNAR library, so is representative of this protein class but has no known target.
(§2) Binding kinetics for binding of the multimeric VNAR proteins to ROR1-hFc or ROR2-hFc fusion proteins (extracelluar domains) were determined using a Pioneer Surface Plasmon Resonance (SPR) instrument (SensiQ/Pall ForteBio) or the Biolayer Interferometry (BLI) Octet K2 system (ForteBio) as previously described.

ROR1 [1] = target: T2, ROR1 (Homo sapiens, UniProt Q01973); experiment: SPR / BLI binding kinetics to immobilised ROR1-hFc; set-up: ROR1-hFc or ROR2-hFc fusion proteins (extracelluar domains) were immobilised; conditions: for hROR1 Ka / hROR1 Ka (M^−1s^−1): association rate; for Kd: read-out: hROR1 KD
Experimental: as §1, §2

ROR1 [2] = target: T2, ROR1; conditions: VNAR domain; data in WO 2019/122447; cited from earlier work
[3] = Mouse plasma stability of protein-PNU conjugates (LC-MS of released payload); assay type: in vitro ADME; conditions: 37° C., 4 μM protein
Experimental: (§3) Different P3A1-hFc-PNU conjugates were incubated at 37° C. in mouse plasma at a final concentration of 4 μM of protein. Samples were analysed by LC-MS as a function of time and the amount of released PNU159682 and EDA-PNU159682 derivative was quantified by reference to calibration standards.

MHH-ES1 = experiment: In vitro cell viability assay (Cell Titre Glo), VNAR drug conjugates: MHH-ES1; assay type: cell-based, human; conditions: for IC50: Table 5, 96 h; for ROR1 targeting/2V non-targeting window MHH-ES1: ratio to corresponding non-binding 2V-hFc conjugate
Experimental: (§4) In Vitro Cell Viability Assays for Cancer Cells Treated with Anti ROR1 VNAR Drug Conjugates
(§5) Cells were seeded into white, clear bottom 96 well plates (Costar) and incubated at 37° C., 5% CO2 for 24 hours. On the following day, dilution series were set up for each test agent at ×10 working stocks. The dose response ×10 stock was: 10000, 5000, 1000, 500, 100, 50, 10, 5, 1, 0.5 nM etc. 10 μL of the ×10 stock solutions were added to the cell plates (90 μl per well) using a multichannel pipette. […] 100d of vehicle control (PBS) was added to the control wells (columns 11 and 12). Plates were incubated at 37′C, 5% CO2 for 72-96 hours. Promega Cell litre Glo reagent was used as per the manufacturer's instructions to assess cell viability. Briefly, assay plates were removed from incubator and allowed to equilibrate to room temperature before adding […] of room temperature Cell litre Glo reagent to each 100 μl assay well. Plates were placed on a plate shaker for 2 minutes at 600 rpm. Plates were allowed to sit for a further 10 minutes at room temperature prior to measuring luminescence read-out using a Clariostar plate-reader (BMG). Data was analysed by calculating the average for untreated (vehicle only) control wells and determining the % of control for each treated well. % of control data was then plotted against Log [Treatment] concentration and the IC50 value derived using non-linear regression fitting in GraphPad Prism software.
(§6) The following cell lines were used: • Kasumi-2—human B cell leukaemia precursor; • PA-1—human ovarian cancer cell line; • PA-1 ROR1 ko—human ovarian cancer cell line with ROR1 knock-out; • 697—human B cell leukaemia precursor, and • MHH-ES1—human Ewing's sarcoma cell line.

Cathepsin B = Cathepsin B (Homo sapiens, UniProt P07858); experiment: Cathepsin B treatment of protein-PNU conjugates, payload release; assay type: in vitro ADME; conditions: after treatment with Cat B; for Average Conc EDA Released: protein 10 uM (2VhFc conjugate 5 uM)
From the text: Cathepsin B treatment of VNAR-hFc-vc-PAB-EDA-PNU conjugates and the corresponding conjugates of the multimeric proteins liberated free EDA-PNU159682 derivative in a quantitative fashion. Whereas, VNAR-hFc-va-EDA-PNU conjugates and the corresponding conjugates of the multimeric proteins were completely stable to Cathepsin B treatment.
Only the vc-PAB-EDA-PNU releases payload on treatment with CatB as expected for the conditions used in this in vitro assay. The release is quantitative—as the conjugates have a drug to antibody ratio of 2, then twice the concentration of payload released versus the concentration of conjugate is expected after CatB treatment. This expectation matches the data shown in Table 11 for vc-PAB-EDA-PNU conjugates.

[4] = Human plasma stability of protein-PNU conjugates (LC-MS of released payload); assay type: in vitro ADME; conditions: 37° C., up to 168 h, 4 or 2 uM PDC, LLOQ 0.1 or 0.156 uM
Experimental: as §3, with “Different” for “Different P3A1-hFc-PNU”, “C. for 168 h” for “C.”, “human” for “mouse”, “4 μM or 2” for “4”, “time up to and including 168 h” for “time”

PA-1 = experiment: In vitro cell viability assay (Cell Titre Glo), VNAR drug conjugates: PA-1; assay type: cell-based, human; conditions: for IC50: Table 5, 96 h; for ROR1 targeting/2V non-targeting window PA-1: ratio to corresponding non-binding 2V-hFc conjugate
Experimental: as §4, §5, §6

697 = experiment: In vitro cell viability assay (Cell Titre Glo), VNAR drug conjugates: 697; assay type: cell-based, human; conditions: for IC50: Table 5, 96 h; for ROR1 targeting/2V non-targeting window 697: ratio to corresponding non-binding 2V-hFc conjugate
Experimental: as §4, §5, §6

Kasumi-2 = experiment: In vitro cell viability assay (Cell Titre Glo), VNAR drug conjugates: Kasumi-2; assay type: cell-based, human; conditions: for IC50: Table 5, 96 h; for ROR1 targeting/2V non-targeting window Kasumi-2: ratio to corresponding non-binding 2V-hFc conjugate
Experimental: as §4, §5, §6

PA-1 ROR1 ko = experiment: In vitro cell viability assay (Cell Titre Glo), VNAR drug conjugates: PA-1 ROR1 ko; assay type: cell-based, human; conditions: for IC50: Table 5, 96 h, PA-1 ROR1 ko; for ROR1 targeting/2V non-targeting window PA-1 31-J-06: ratio to corresponding non-binding 2V-hFc conjugate, PA-1 31-J-06 (ROR1 −/−; matches PA-1 ROR1 ko of Table 5)
Experimental: as §4, §5, §6

[5] = Table 3, VNAR-Fc fusions, dissociation rate
[6] = Table 3b, VNAR-Fc fusions, dissociation rate

B1: hFc - P3A1: hIgG1 Fc - VNAR P3A1 fusion (protein)
chain: GGGGSGGGGSGGGGSTRVDQTPRTATKETGESLTINCVLTDTSYGLYSTSWFRKNPGTTDWERMSIGGRYVESVNKGAKSFSLRIKDLTVADSATYYCKAREARHPWLRQWYDGAGTVLTVN
modifications: left off: a dimerising Fc or GST
notes: hIgG1 Fc - VNAR P3A1 fusion
hROR2 (human ROR2; Table 3, VNAR-Fc fusions): No binding | hROR1 Ka (ROR1 [1]; Table 3, VNAR-Fc fusions): 2.38e+06 M⁻¹ s⁻¹ | hROR1 Kd (ROR1 [1]; [5]): 0.000776 s⁻¹ | Kd (ROR1 [1]; Table 3, VNAR-Fc fusions): 0.35 nM

B2: B1V15 hFc: humanised VNAR B1V15 (SEQ ID NO: 59) - hFc fusion (protein)
chain: ASVTQSPRSASKETGESLTITCRVTGANYGLAATYWYRKNPGSSNQERISISGRYSESVNKRTMSFSLRISSLTVEDSATYYCKAYPWGAGAPWLVQWYDGQGTKLEVKGGGGSGGGGSGGGGS
modifications: left off: a dimerising Fc or GST
hROR2 (human ROR2; Table 3b, VNAR-Fc fusions): No binding | hROR1 Ka (ROR1 [1]; Table 3b, VNAR-Fc fusions): 179000 M⁻¹ s⁻¹ | hROR1 Kd (ROR1 [1]; [6]): 0.00013 s⁻¹

B3: P3A1: VNAR domain, SEQ ID NO: 43 (protein)
VHH: TRVDQTPRTATKETGESLTINCVLTDTSYGLYSTSWFRKNPGTTDWERMSIGGRYVESVNKGAKSFSLRIKDLTVADSATYYCKAREARHPWLRQWYDGAGTVLTVN
binding to ROR1 (ROR1 [2]): bind to ROR1

B4: P3A1hFc-PEG4-vc-PAB-EDA-PNU (conjugate)
chain: TRVDQTPRTATKETGESLTINCVLTDTSYGLYSTSWFRKNPGTTDWERMSIGGRYVESVNKGAKSFSLRIKDLTVADSATYYCKAREARHPWLRQWYDGAGTVLTVNGGGGSGGGGSGGGGS
modifications: left off: a dimerising Fc or GST
Concentration (nM) of free PNU payload detected by LC-MS, 4 h [3]: 21 nM | Concentration (nM) of free PNU payload detected by LC-MS, 24 h [3]: 84 nM | Concentration (nM) of free PNU payload detected by LC-MS, 48 h [3]: 108 nM | Concentration (nM) of free PNU payload detected by LC-MS, 72 h [3]: 107 nM | Concentration (nM) of free PNU payload detected by LC-MS, 96 h [3]: 101 nM | Concentration (nM) of free PNU payload detected by LC-MS, 120 h [3]: 114 nM | IC50 (MHH-ES1): 24 nM | ROR1 targeting/2V non-targeting window MHH-ES1 (MHH-ES1): 1.1 | Average Conc EDA Released (Cathepsin B): 20.1 µM | Observed EDA payload release [4]: EDA-PNU not detected above LLOQ | IC50 (PA-1): 0.1 nM | ROR1 targeting/2V non-targeting window PA-1 (PA-1): 73 | IC50 697: 52 nM | ROR1 targeting/2V non-targeting window 697 697: 1.2 | IC50 (Kasumi-2): 3.2 nM | ROR1 targeting/2V non-targeting window Kasumi-2 (Kasumi-2): 18 | IC50 (PA-1 ROR1 ko): 11 nM | ROR1 targeting/2V non-targeting window PA-1 31-J-06 (PA-1 ROR1 ko): 1.3

B5: P3A1 hFc: ROR1-specific VNAR P3A1 fused to engineered hIgG1 Fc domain (S239C) (protein)
chain: B4 chain
modifications: left off: a dimerising Fc or GST
hROR2 (human ROR2; Table 3, VNAR-Fc fusions): No binding | hROR1 Ka (ROR1 [1]; Table 3, VNAR-Fc fusions): 1.07e+07 M⁻¹ s⁻¹ | hROR1 Kd (ROR1 [1]; [5]): 0.000564 s⁻¹ | Kd (ROR1 [1]; Table 3, VNAR-Fc fusions): 0.084 nM

B6: P3A1hFc-PEG4-va-EDA-PNU (conjugate)
chain: B4 chain
modifications: left off: a dimerising Fc or GST
Concentration (nM) of free PNU payload detected by LC-MS, 4 h [3]: 3 nM | Concentration (nM) of free PNU payload detected by LC-MS, 24 h [3]: 4 nM | Concentration (nM) of free PNU payload detected by LC-MS, 48 h [3]: 1 nM | Concentration (nM) of free PNU payload detected by LC-MS, 72 h [3]: 2 nM | Concentration (nM) of free PNU payload detected by LC-MS, 96 h [3]: 5 nM | Concentration (nM) of free PNU payload detected by LC-MS, 120 h [3]: 3 nM | IC50 (MHH-ES1): 18 nM | ROR1 targeting/2V non-targeting window MHH-ES1 (MHH-ES1): 8.4 | EDA released, per cent of theoretical conc of payload (Cathepsin B; figure in brackets): 1.7% | Average Conc EDA Released (Cathepsin B): 0.36 µM | Observed EDA payload release [4]: no EDA-PNU detected at any time points | IC50 (PA-1): 0.15 nM | ROR1 targeting/2V non-targeting window PA-1 (PA-1): 360 | IC50 697: 61 nM | ROR1 targeting/2V non-targeting window 697 697: 4 | IC50 (Kasumi-2): 2.3 nM | ROR1 targeting/2V non-targeting window Kasumi-2 (Kasumi-2): 43 | IC50 (PA-1 ROR1 ko): 11.3 nM | ROR1 targeting/2V non-targeting window PA-1 31-J-06 (PA-1 ROR1 ko): 4

B7: 2V hFc: non-binding control VNAR 2V fused to hIgG1 Fc (protein)
chain: B4 chain with R86Q, E87S, A88L, R89A, H90I, P91S, W92T, L93R, R94S, Q95Y
modifications: left off: a dimerising Fc or GST
hROR2 (human ROR2; Table 3, VNAR-Fc fusions): No binding | hROR1 KD (nM) (ROR1 [1]; Table 3, VNAR-Fc fusions): No binding | hROR1 Ka (M^−1s^−1) (ROR1 [1]; Table 3, VNAR-Fc fusions): No binding | hROR1 Kd (s^−1) (ROR1 [1]; [5]): No binding

B8: P3A1hFc(442)-PEG4-va-EDA-PNU (conjugate)
chain: B4 chain
modifications: left off: a dimerising Fc or GST
IC50 (MHH-ES1): 37.5 nM | Observed EDA payload release [4]: No EDA-PNU detected at any time points | IC50 (PA-1): 0.025 nM | IC50 (Kasumi-2): 9.1 nM | IC50 (PA-1 ROR1 ko): 18.3 nM

B9: P3A1 hFc(442): VNAR P3A1 fused to engineered hIgG1 Fc with cysteine substitution S442C (EU numbering) (protein)
chain: B4 chain
modifications: left off: a dimerising Fc or GST
hROR2 (human ROR2; Table 3b, VNAR-Fc fusions): No binding | hROR1 Ka (M^−1s^−1) (ROR1 [1]; Table 3b, VNAR-Fc fusions): 2.70+05 M^−1s^−1 | hROR1 Kd (ROR1 [1]; [6]): 0.0002 s⁻¹
